In paper PMC6332122, “Identification of RNA Oligonucleotides Binding to Several Proteins from Potential G-Quadruplex Forming Regions in Transcribed Pre-mRNA”:

Columns and labels:
alpha-Thrombin = alpha-Thrombin (human, UniProt P00734;P00734 328-363;364-622); experiment: SPR; SPR: PBS (137 mM NaCl, 2.7 mM KCl, 8 mM Na2HPO4, 2 mM KH2PO4) pH 7.4, 25 °C, protein on CM5; EMSA: 50 mM Tris-HCl, 100 mM KCl, pH 7.5, room temperature, 1 uM RN
PDGF-BB = PDGF-BB (UniProt P01127 82-190); experiment: SPR; SPR: PBS (137 mM NaCl, 2.7 mM KCl, 8 mM Na2HPO4, 2 mM KH2PO4) pH 7.4, 25 °C, protein on CM5; EMSA: 50 mM Tris-HCl, 100 mM KCl, pH 7.5, room temperature, 1 uM RNA, 15% PAGE in TBE; settings: protein: commercial, chain copies: 2, parallel G4
Chain of PDGF-BB (P01127 82-190): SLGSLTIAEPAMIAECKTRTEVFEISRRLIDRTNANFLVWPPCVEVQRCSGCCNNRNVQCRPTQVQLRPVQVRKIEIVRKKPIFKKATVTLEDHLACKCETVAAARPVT

PDGF-AA = PDGF-AA (UniProt P04085 87-211); experiment: as above; settings: protein: commercial, chain copies: 2, parallel G4
VEGF165 [1] = target: T1, VEGF165 (UniProt P15692-4 27-191); experiment: as above; settings: protein: commercial, parallel G4
T1 sequence (P15692 other isoform, or with tags, fused parts or gaps): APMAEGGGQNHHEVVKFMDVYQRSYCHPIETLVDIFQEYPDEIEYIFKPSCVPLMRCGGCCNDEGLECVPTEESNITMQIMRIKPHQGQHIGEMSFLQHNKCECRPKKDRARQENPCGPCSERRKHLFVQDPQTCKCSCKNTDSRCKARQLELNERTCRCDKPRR

VEGF165 [2] = target: T1, VEGF165; experiment: SPR; up to 1000 nM RNA; SPR: PBS (137 mM NaCl, 2.7 mM KCl, 8 mM Na2HPO4, 2 mM KH2PO4) pH 7.4, 25 °C, protein on CM5; EMSA: 50 mM Tris-HCl, 100 mM KCl, pH 7.5, room temperature, 1 uM RNA, 15% PAGE in TBE; settings: protein: commercial
[3] = label: 5' fluorescein for EMSA, none for SPR

Binder	Kd (PDGF-BB)	Kd (PDGF-AA)	Kd (VEGF165 [1])	further results
GGGGGCGGGAGCCAGAGACCAGUGGGCAGGG (structured_RNA) [VEGFA intronic G4_1]				binding result (alpha-Thrombin): no binding; Kd (PDGF-BB; [3]): 40 nM; Kd (PDGF-AA; [3]): 20 nM; Kd (VEGF165 [1]; [3]): 140 nM
GGGGGCAGGGCGCAGGAGGGAGAGGGGG (structured_RNA) [VEGFA intronic G4_2]	30 nM	20 nM	31 nM	binding result (alpha-Thrombin): no binding
GGAGGAGGGGGAGGAGGA (structured_RNA) [VEGFA 5' UTR G4]	110 nM	60 nM	300 nM	binding result (alpha-Thrombin): no binding
GGGGAAGGGGAGCUGGGGCGCAGCGGG (structured_RNA) [PDGFA intronic G4_1]	30 nM	30 nM	490 nM	
GGGGUGCGGGGAGCGGGGAAGGG (structured_RNA) [PDGFA intronic G4_2]	30 nM	30 nM	200 nM	
GGGCGCGGGGUUUGGGGUGGG (structured_RNA) [PDGFB intronic G4_1]	40 nM	30 nM	130 nM	
GGGCACUCGGGUAGGGGGAGGACUAGGG (structured_RNA) [PDGFB intronic G4_2]	30 nM	20 nM	150 nM	
GGGUUUGGUUGGGCACAGGGCACGGG (structured_RNA) [PDGFB intronic G4_3]	60 nM	40 nM	440 nM	
GUUUGCGGGAGCCAGAGACCAGUGGGCAGGG (structured_RNA) [VEGFA intronic G4_1 mutant]				binding result (VEGF165 [2]; label: 5' fluorescein for EMSA, none for SPR, unexpected parallel G4 by CD): no binding
UUUUUCAGGGCGCAGGAGGGAGAUUUUU (ssRNA) [VEGFA intronic G4_2 mutant]				binding result (VEGF165 [2]; no parallel G4 by CD): no binding
GGAUUAGUGUGAGGAGGA (ssRNA) [VEGFA 5' UTR G4 mutant]				binding result (VEGF165 [2]; no parallel G4 by CD): no binding
